Values belong to the molecule of their own block, whether it stands above or below them.
B3: 6×His-FAK KFL_(776–841) (domain or fragment, human, UniProt Q05397 776-841, looked up)
chain: {6×His}-HRPQEIAMWQPNVEDSTVLDLRGIGQVLPTHLMEERLIRQQQEMEEDQRWLEKEERFLKPDVRLSR
modifications: also: fluorescent label on His-tag
notes: source: E. coli, purified (nickel column, Superdex 75 SEC); not shown: His6, N-terminal, kept

Legend:
[1] = molecular target: 6×His–PYK2 KFL_(728–839) (human) (UniProt Q14289); experiment: ITC; 25 °C; 20 mM HEPES pH 7.5, 150 mM NaCl, 2 mM DTT, 1 mM EGTA; CaM (300 µM) injected into PYK2 KFL728–839 (30 µM)
[2] = molecular target: 6×His–PYK2 KFL_(728–839) (human) (UniProt Q14289); experiment: ITC; 25 °C; 20 mM HEPES pH 7.5, 150 mM NaCl, 2 mM DTT, 5 mM Ca2+; CaM (300 µM) injected into KFL constructs in the cell (30 or 50 µM), or FERM domains (500 µM) injected into CaM (50 µM)
6×His-FAK KFL_(776–841) [3] = molecular target: B3; experiment: fluorescence polarisation; fluorescence anisotropy; labelled 6×His protein at 50 nM, unlabelled MBP-fused protein serially diluted; 20 mM HEPES, 200 mM NaCl, 1 mM DTT, pH 6.5; conditions: both partners purified
6×His-FAK KFL_(776–841) [4] = molecular target: T1, 6×His-FAK KFL_(776–841) (human, UniProt Q05397 776-841, fluorescent label from the NanoTemper His-tag labelling kit (MST, fluorescence anisotropy)); experiment: FP
T1 chain: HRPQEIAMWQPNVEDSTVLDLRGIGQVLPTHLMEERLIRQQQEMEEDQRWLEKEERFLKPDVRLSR

FAK KFL 776-841 = molecular target: T2, FAK KFL 776-841 (Homo sapiens, UniProt Q05397); experiment: MST (self-association)
T2 chain: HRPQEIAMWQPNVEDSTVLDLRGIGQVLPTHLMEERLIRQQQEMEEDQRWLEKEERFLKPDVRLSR

[5] = molecular target: the molecule itself; experiment: MST; labelled 6×His protein at 50 nM, unlabelled protein serially diluted; 20 mM HEPES, 200 mM NaCl, 1 mM DTT, pH 6.5; dimer to monomers
[6] = molecular target: the molecule itself; experiment: SEC-MALS; Superdex 200; 20 mM HEPES, 200 mM NaCl, 2 mM DTT, pH 6.5 and 7.5; DAWN MALS detector

binding result (6×His-FAK KFL_(776–841) [3]): binds
Kd (6×His-FAK KFL_(776–841) [4]): 730 nM
B1: MBP–FAK KFL_(776–841) (domain or fragment, human, UniProt Q05397 776-841, looked up)
chain: HRPQEIAMWQPNVEDSTVLDLRGIGQVLPTHLMEERLIRQQQEMEEDQRWLEKEERFLKPDVRLSR
notes: not shown: MBP, N-terminal, kept

Kd (FAK KFL 776-841): 848 nM
B2: FAK KFL 776-841 (protein)
chain: HRPQEIAMWQPNVEDSTVLDLRGIGQVLPTHLMEERLIRQQQEMEEDQRWLEKEERFLKPDVRLSR
modifications: not fully specified

The next lines start with the molecule.

Molecule: 6×His–CaM (recombinant calmodulin) (from UniProt P0DP23 1-149) (natural protein)
stoichiometry N [1]: 1
stoichiometry N [2]: 1

Molecule: B3
Kd [5]: ~800 nM
stoichiometry N [6]: 2
